Data on seven substances can be found in PMC4857094.

Test [1] concerns the target circularly permutated RBD of PKN1 (PKN1-WT) in the RhoA/B/C FRET sensors. Briefly: FRET or BRET; intramolecular single-chain sensor (PKN1 RBD, mVenus, Cerulean3, RhoGTPase); average basal YFP/CFP ratio in resting live primary human EC (HUVEC), 18 hours after microporation.
Test [2] has the same target. Briefly: FRET or BRET; intramolecular single-chain sensor (PKN1 RBD, mVenus, Cerulean3, RhoGTPase); normalized mean YFP/CFP ratio change of whole live HUVEC after Thrombin (1 U/ml) at t = 110 sec. (BRET reads energy transfer from a luciferase to a nearby fluorophore.)

Turning to “RhoC-G14V in the RhoC FRET sensor (from UniProt P08134 1-193) (natural protein)”, the basal YFP/CFP ratio in test [1] came to 6.2. Consider “RhoB-WT in the RhoB FRET sensor (from UniProt P62745 1-196) (natural protein)”, for which the mean maximal FRET ratio change after Thrombin in test [2] came to 122%.

In the case of “RhoC-Q63L in the RhoC FRET sensor (from UniProt P08134 1-193) (natural protein)”, the basal YFP/CFP ratio in test [1] was 6.8.

For “RhoA-WT in the RhoA FRET sensor (from UniProt P61586 1-193) (natural protein)”, the mean maximal FRET ratio change after Thrombin in test [2] came to 32%.

On to “RhoB-G14V in the RhoB FRET sensor (from UniProt P62745 1-196) (natural protein)”, for which the basal YFP/CFP ratio in test [1] was found to be 6.5. Same read-out and setting: with “RhoA-Q63L in the RhoA FRET sensor (from UniProt P61586 1-193) (natural protein)” the figure was 8.1. Regarding “RhoC-WT in the RhoC FRET sensor (from UniProt P08134 1-193) (natural protein)”, in test [2], the mean maximal FRET ratio change after Thrombin was found to be 42%.
